The term Kd denotes the free concentration of one partner at which half of the binding sites on the other are occupied at equilibrium, for simple one-to-one binding. Read a high Kd as weaker binding.

These results are taken from patent US20100099203A1.

Assay [1] addresses Protein A (UniProt P38507). The assay can be described thus: Back scattering interferometry, free solution in PBS, 0.67 uM Protein A with IgG varied over 6 concentrations, 2 h at room temperature, PEG-5mer passivated chip.
Assay [2] has as its target Protein A (UniProt P38507). The assay is described as follows: Back scattering interferometry, free solution in PBS, 0.67 uM Protein A with IgG varied over 6 concentrations, 2 h at room temperature, PEG 200 passivated chip.

With IgG (antibody), the Kd with Protein A [1] worked out at 8 nM.

The substance IgG Fc segment showed a Kd with Protein A [2] of 35 nM.
